This note sets out measurements from EP3553078A1 (Julius-Maximilians-Universität Würzburg, dated 2019).

This test deals with T1, IL-4Rα ectodomain (site-specifically biotinylated IL-4Rα ectodomain protein) (human, UniProt P24394 26-232, site-specifically biotinylated (site not stated)).
T1 construct: extracellular domain; Immobilised on a streptavidin-coated SPR chip; also called IL-4Rα ECD; IL-4 receptor α
T1 sequence (looked up): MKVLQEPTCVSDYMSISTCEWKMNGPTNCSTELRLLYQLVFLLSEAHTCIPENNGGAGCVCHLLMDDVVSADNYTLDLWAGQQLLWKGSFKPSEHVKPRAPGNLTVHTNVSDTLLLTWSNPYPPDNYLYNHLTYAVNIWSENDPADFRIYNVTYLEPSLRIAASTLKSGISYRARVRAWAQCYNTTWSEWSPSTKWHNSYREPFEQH
Description: in vitro interaction analysis (SPR) on IL-4Rα.

B1: IL-4 mutein F82D Q20N T28N K61N R121C-Glc (Hek293-derived, hyper-glycosylated) (ligand)
chain: HKCDITLQEIIKTLNSLTENKTLCTELNVTDIFAASKNTTEKETFCRAATVLRQFYSHHENDTRCLGATAQQFHRHKQLIRDLKRLDRNLWGLAGLNSCPVKEANQSTLENFLERLKTIMCEKYSKCSS
modifications: complex N-glycans at positions 38, 20, 28 and 61; disulphide conjugated glucose at Cys121
notes: also called Q20N/T28N/K61N/F82D/R121C-Glc; 3rd generation IL-4 antagonist; not shown: C-terminal thrombin cleavage site and hexahistidine tag of the modified pHLsec vector
Take B1: the Kd (usually a measure of binding affinity in units of concentration) was roughly 0.218 nM.
